Experimental data reported in the supplement of paper PMC10126150.
± gives the standard deviation of the averaged measurements.

Test system: ATP
Test: switch fluorescence ratio, 500 uM ATP over buffer (Cy3 cluster intensity, sum of 5 cycles each) (fold (ratio)); higher = stronger signal-on switching upon ATP binding; sequences stand for … in TCGTCGGCAGCGTCAGATGTGTATAAGAGACAGTTTTTTTTTTTTTTTTTTTTTTTTT…TC
Conditions: aptamer strand: ATP DNA aptamer (quencher-CACCTGGGGGAGTATTGCGGAGGAAGG + anchor), 100 nM annealed; ATP concentration: 500 uM
Method in brief: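 Values give the fluorescence ratio for each switch-domain sequence, averaged from per-cluster ratios of summed target-cycle to summed buffer-cycle Cy3 intensity. The Cy3-labelled switching-strand clusters sat on a modified Illumina MiSeq flow-cell, were annealed to 100 nM quencher-labelled ATP aptamer, and were imaged in selection buffer, then after 15 min with 500 uM ATP at 22 °C. Five cycles ran with NaOH stripping and re-annealing between them, and clusters outside 100-1000 RFU were excluded.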
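Further: ATP exposure 15 min at 22 °C before imaging.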

With GGTGGGTGAG the switch fluorescence ratio was 0.9745 ± 0.0094.
Sequence GGTGGGTGTA has a switch fluorescence ratio of 0.957 ± 0.051.
GGTGGGTGTT gave a switch fluorescence ratio of 0.951 ± 0.017.
GGTGGGTTGG showed a switch fluorescence ratio of 0.982 ± 0.034.
For GGTGGGTTTT, the switch fluorescence ratio was 0.99 ± 0.013.
GGTGGTCGAC gave a switch fluorescence ratio of 1.03 ± 0.038.
Sequence GGTGGTGGAC has a switch fluorescence ratio of 0.992 ± 0.037.
GGTGGTGGCG was tested, and the switch fluorescence ratio was 1.01 ± 0.059.
In the case of GGTGGTTGGG, the switch fluorescence ratio is reported as 1.01 ± 0.038.
GGTGGTTTTT was tested, and the switch fluorescence ratio was 1.03 ± 0.099.
With GGTGTAATTG the switch fluorescence ratio was 1.003 ± 0.0065.
GGTGTAGATT showed a switch fluorescence ratio of 1.07 ± 0.04.
For GGTGTATGGG, the switch fluorescence ratio was 1.01 ± 0.014.
GGTGTATTGG showed a switch fluorescence ratio of 0.991 ± 0.029.
With GGTGTCTCCC the switch fluorescence ratio was 1 ± 0.039.
Work on GGTGTGCAAG yielded a switch fluorescence ratio of 0.947 ± 0.04.
With GGTGTGGAAA the switch fluorescence ratio was 1 ± 0.015.
With GGTGTGGAAT the switch fluorescence ratio was 1.02 ± 0.033.
With GGTGTGGGGT the switch fluorescence ratio was 0.986 ± 0.02.
GGTGTTAGAC showed a switch fluorescence ratio of 0.976 ± 0.029.
For GGTGTTAGAT, the switch fluorescence ratio was 0.993 ± 0.035.
Work on GGTGTTAGGG yielded a switch fluorescence ratio of 1.02 ± 0.027.
GGTGTTCGTG showed a switch fluorescence ratio of 0.985 ± 0.019.
GGTGTTCTGC showed a switch fluorescence ratio of 0.995 ± 0.081.
GGTGTTGCGG showed a switch fluorescence ratio of 0.98 ± 0.038.
GGTTAAAATC showed a switch fluorescence ratio of 1.02 ± 0.023.
With GGTTAAACGG the switch fluorescence ratio was 1.02 ± 0.013.
GGTTAAAGGG was tested, and the switch fluorescence ratio was 1.07 ± 0.15.
Sequence GGTTAACCTG has a switch fluorescence ratio of 0.9959 ± 0.0062.
GGTTAAGGCG was tested, and the switch fluorescence ratio was 0.9569 ± 0.0079.
For GGTTAAGTAG, the switch fluorescence ratio was 1.004 ± 0.0075.
In the case of GGTTAAGTGC, the switch fluorescence ratio is reported as 1.01 ± 0.029.
With GGTTAAGTGG the switch fluorescence ratio was 1.01 ± 0.015.
For GGTTAATTAG, the switch fluorescence ratio was 0.9819 ± 0.0077.
GGTTACCGTG was tested, and the switch fluorescence ratio was 0.997 ± 0.033.
Sequence GGTTACGCTA has a switch fluorescence ratio of 1.11 ± 0.074.
GGTTACGGGG gave a switch fluorescence ratio of 1.01 ± 0.013.
Work on GGTTACGGTA yielded a switch fluorescence ratio of 1.04 ± 0.031.
Work on GGTTAGATTG yielded a switch fluorescence ratio of 1.01 ± 0.006.
GGTTAGGATG showed a switch fluorescence ratio of 0.97 ± 0.025.
Sequence GGTTAGTATG has a switch fluorescence ratio of 1.01 ± 0.027.
Work on GGTTATCGAG yielded a switch fluorescence ratio of 0.975 ± 0.037.
With GGTTATGGCC the switch fluorescence ratio was 1.01 ± 0.031.
GGTTATGGGA gave a switch fluorescence ratio of 0.996 ± 0.032.
With GGTTATGGTA the switch fluorescence ratio was 0.9715 ± 0.0063.
With GGTTATGTGT the switch fluorescence ratio was 0.964 ± 0.014.
Sequence GGTTATTGGG has a switch fluorescence ratio of 0.98 ± 0.075.
For GGTTATTGGT, the switch fluorescence ratio was 1.02 ± 0.021.
Sequence GGTTATTTA has a switch fluorescence ratio of 0.992 ± 0.035.
With GGTTCAAGGT the switch fluorescence ratio was 0.994 ± 0.027.
For GGTTCAGGGC, the switch fluorescence ratio was 1.02 ± 0.047.
GGTTCATTTT showed a switch fluorescence ratio of 1.01 ± 0.025.
With GGTTCGAGAG the switch fluorescence ratio was 0.964 ± 0.012.
GGTTCGGATC showed a switch fluorescence ratio of 0.99316 ± 0.00058.
With GGTTCGGCGG the switch fluorescence ratio was 1.01 ± 0.045.
GGTTCGTCTG was tested, and the switch fluorescence ratio was 0.981 ± 0.021.
GGTTGAAAGT gave a switch fluorescence ratio of 1.48 ± 0.69.
GGTTGAAGGT showed a switch fluorescence ratio of 1 ± 0.03.
For GGTTGACGAG, the switch fluorescence ratio was 0.986 ± 0.012.
GGTTGACTTA was tested, and the switch fluorescence ratio was 1.03 ± 0.011.
GGTTGAGATG gave a switch fluorescence ratio of 0.982 ± 0.014.
With GGTTGAGCGG the switch fluorescence ratio was 0.993 ± 0.011.
GGTTGAGCTG was tested, and the switch fluorescence ratio was 0.945 ± 0.056.
GGTTGAGGTT gave a switch fluorescence ratio of 1.04 ± 0.022.
In the case of GGTTGCAAGA, the switch fluorescence ratio is reported as 1.01 ± 0.015.
GGTTGCACGC was tested, and the switch fluorescence ratio was 1.01 ± 0.0046.
With GGTTGCAGCT the switch fluorescence ratio was 0.975 ± 0.018.
With GGTTGCCATA the switch fluorescence ratio was 0.944 ± 0.025.
GGTTGCGCTT showed a switch fluorescence ratio of 1.29 ± 0.39.
GGTTGGCCGT was tested, and the switch fluorescence ratio was 1.03 ± 0.051.
GGTTGGGATG showed a switch fluorescence ratio of 0.951 ± 0.022.
GGTTGGGTTG showed a switch fluorescence ratio of 0.987 ± 0.019.
GGTTGGTGGG showed a switch fluorescence ratio of 0.969 ± 0.044.
GGTTGTATCG was tested, and the switch fluorescence ratio was 1 ± 0.05.
In the case of GGTTGTGCTT, the switch fluorescence ratio is reported as 0.995 ± 0.0039.
GGTTTAAAGA was tested, and the switch fluorescence ratio was 1 ± 0.038.
In the case of GGTTTAAATG, the switch fluorescence ratio is reported as 1.0317 ± 0.00089.
GGTTTAAGGC gave a switch fluorescence ratio of 0.993 ± 0.047.
With GGTTTAAGTT the switch fluorescence ratio was 0.99 ± 0.03.
GGTTTAATAG gave a switch fluorescence ratio of 0.986 ± 0.026.
Sequence GGTTTAATGT has a switch fluorescence ratio of 0.9927 ± 0.0098.
Sequence GGTTTAGGGG has a switch fluorescence ratio of 0.985 ± 0.032.
GGTTTAGTCA was tested, and the switch fluorescence ratio was 0.9719 ± 0.00067.
In the case of GGTTTATCGT, the switch fluorescence ratio is reported as 0.974 ± 0.022.
GGTTTATGTT showed a switch fluorescence ratio of 1 ± 0.019.
GGTTTATTGG was tested, and the switch fluorescence ratio was 1 ± 0.03.
With GGTTTCATGA the switch fluorescence ratio was 1.01 ± 0.026.
Sequence GGTTTCCGCC has a switch fluorescence ratio of 1.169 ± 0.0023.
In the case of GGTTTCGCCA, the switch fluorescence ratio is reported as 0.9807 ± 0.0096.
For GGTTTCGCTT, the switch fluorescence ratio was 1.03 ± 0.046.
Sequence GGTTTCGGGA has a switch fluorescence ratio of 1.01 ± 0.021.
In the case of GGTTTCTAAG, the switch fluorescence ratio is reported as 1.01 ± 0.042.
GGTTTGAGTA gave a switch fluorescence ratio of 1.02 ± 0.074.
Work on GGTTTGCAGT yielded a switch fluorescence ratio of 1.003 ± 0.0093.
GGTTTGCTAG gave a switch fluorescence ratio of 1.04 ± 0.072.
Work on GGTTTGGATA yielded a switch fluorescence ratio of 0.985 ± 0.028.
Work on GGTTTGGCGT yielded a switch fluorescence ratio of 0.981 ± 0.017.
With GGTTTGGGCG the switch fluorescence ratio was 1.03 ± 0.034.
GGTTTGGGCT gave a switch fluorescence ratio of 0.983 ± 0.051.
In the case of GGTTTGGGGA, the switch fluorescence ratio is reported as 0.983 ± 0.011.
